Measured values published in US20250136720A1 (Boehringer Ingelheim, published 2025).

Columns and labels:
[1] = target: T1, Human CD137 on Jurkat cells (human, UniProt Q07011 24-255); assay: cell-based or functional assay
[2] = target: T1, Human CD137 on Jurkat cells; assay: cell-based or functional assay; set-up: IC90; Jurkat-CD137 NFkB-luciferase, HT1080-FAP co-culture / EC90; Jurkat-CD137 NFkB-luciferase, HT1080-FAP co-culture: unit not given beside the values

Binder	Average EC50; Jurkat-CD137 NFkB-luciferase, HT1080-FAP co-culture [1] [nM]	Average EC90; Jurkat-CD137 NFkB-luciferase, HT1080-FAP co-culture [1] [nM]	Average IC50; Jurkat-CD137 NFkB-luciferase, HT1080-FAP co-culture [1] [nM]	Average IC90; Jurkat-CD137 NFkB-luciferase, HT1080-FAP co-culture [1] [nM]	Ratio IC50/EC50; Jurkat-CD137 NFkB-luciferase, HT1080-FAP co-culture [1]	Ratio IC90/EC90; Jurkat-CD137 NFkB-luciferase, HT1080-FAP co-culture [1]	EC90; Jurkat-CD137 NFkB-luciferase, HT1080-FAP co-culture [2]	IC90; Jurkat-CD137 NFkB-luciferase, HT1080-FAP co-culture [2]	Total AUC; Jurkat-CD137 NFkB-luciferase, HT1080-FAP co-culture [2]
CD137 #5 (B21.V29) + FAP #3 (A11 VK7/VH1) (bispecific antibody, human IgG1, kappa, L234A L235A) heavy: not shown light: DIQMTQSPSSLSASVGDRVTITCRASQSISTALAWYQQKPGKAPKLLIYAASYRYSGVPSRFSGSGSGTDFTLTISSLQPEDFAVYYCQQHYSNPWTFGQGTKLEIKRTVAAPSVFIFPPSDEQLKSGTASVVCLLNNFYPREAKVQWKVDNALQSGNSQESVTEQDSKDSTYSLSSTLTLSKADYEKHKVYACEVTHQGLSSPVTKSFNRGEC	0.09	0.671	347	52.8	3840	78.6	0.52	51.9	2.9e+06
CD137 #6 (B21.V37) + FAP #3 (A11 VK7/VH1) (bispecific antibody, human IgG1, kappa, L234A L235A) heavy: not shown light: DIQMTQSPSSLSASVGDRVTITCRASQSISTALAWYQQKPGKAPKLLIYAASYRYSGVPSRFSGSGSGTDFTLTISSLQPEDFAVYYCQQHYSNPWTFGQGTKLEIKRTVAAPSVFIFPPSDEQLKSGTASVVCLLNNFYPREAKVQWKVDNALQSGNSQESVTEQDSKDSTYSLSSTLTLSKADYEKHKVYACEVTHQGLSSPVTKSFNRGEC	0.141	1.43	756	165	5370	115	2.34	258	3.5e+06
CD137 #2 (B21.V16) + FAP #2 (A11 VK3/VH3) (bispecific antibody, human IgG1, kappa, L234A L235A) heavy: not shown light: DIQMTQSPSSLSASVGDRVTITCKASQDISSAVAWYQQKPGKAPKLLIYSASSRYTGVPSRFSGSGSGTDFTLTISSLQPEDFAVYYCQQHYSNPWTFGQGTKLEIKRTVAAPSVFIFPPSDEQLKSGTASVVCLLNNFYPREAKVQWKVDNALQSGNSQESVTEQDSKDSTYSLSSTLTLSKADYEKHKVYACEVTHQGLSSPVTKSFNRGEC	0.165	1.47	847	87.8	5130	59.7	3.14	127	3.3e+06
CD137 #4 (B21.V25) + FAP #5 (C3 VK1/VH4) (bispecific antibody, human IgG1, kappa, L234A L235A) heavy: not shown light: DIQMTQSPSSLSASVGDRVTITCRASQSISTAVAWYQQKPGKAPKLLIYAASYLYSGVPSRFSGSGSGTDFTLTISSLQPEDFAVYYCQQHYSNPWTFGQGTKLEIKRTVAAPSVFIFPPSDEQLKSGTASVVCLLNNFYPREAKVQWKVDNALQSGNSQESVTEQDSKDSTYSLSSTLTLSKADYEKHKVYACEVTHQGLSSPVTKSFNRGEC	0.175	1.25	559	98.6	3190	79	1.38	77.8	3e+06
CD137 #6 (B21.V37) + FAP #2 (A11 VK3/VH3) (bispecific antibody, human IgG1, kappa, L234A L235A) heavy: not shown light: DIQMTQSPSSLSASVGDRVTITCRASQSISTALAWYQQKPGKAPKLLIYAASYRYSGVPSRFSGSGSGTDFTLTISSLQPEDFAVYYCQQHYSNPWTFGQGTKLEIKRTVAAPSVFIFPPSDEQLKSGTASVVCLLNNFYPREAKVQWKVDNALQSGNSQESVTEQDSKDSTYSLSSTLTLSKADYEKHKVYACEVTHQGLSSPVTKSFNRGEC	0.153	1.07	314	105	2060	98.1	0.55	53.6	4e+06
CD137 #6 (B21.V37) + FAP #5 (C3 VK1/VH4) (bispecific antibody, human IgG1, kappa, L234A L235A) heavy: not shown light: DIQMTQSPSSLSASVGDRVTITCRASQSISTALAWYQQKPGKAPKLLIYAASYRYSGVPSRFSGSGSGTDFTLTISSLQPEDFAVYYCQQHYSNPWTFGQGTKLEIKRTVAAPSVFIFPPSDEQLKSGTASVVCLLNNFYPREAKVQWKVDNALQSGNSQESVTEQDSKDSTYSLSSTLTLSKADYEKHKVYACEVTHQGLSSPVTKSFNRGEC	0.054	0.315	191	13.8	3520	43.8	0.47	13.8	3.6e+06
CD137 #2 (B21.V16) + FAP #5 (C3 VK1/VH4) (bispecific antibody, human IgG1, kappa, L234A L235A) heavy: not shown light: DIQMTQSPSSLSASVGDRVTITCKASQDISSAVAWYQQKPGKAPKLLIYSASSRYTGVPSRFSGSGSGTDFTLTISSLQPEDFAVYYCQQHYSNPWTFGQGTKLEIKRTVAAPSVFIFPPSDEQLKSGTASVVCLLNNFYPREAKVQWKVDNALQSGNSQESVTEQDSKDSTYSLSSTLTLSKADYEKHKVYACEVTHQGLSSPVTKSFNRGEC	0.233	2.23	538	110	2300	49.4	0.87	74.3	3.6e+06
CD137 #8 (A49.V43) + FAP #5 (C3 VK1/VH4) (bispecific antibody, human IgG1, kappa, L234A L235A) heavy: not shown light: EIVMTQSPLSLPVTPGEPASISCRSSQSLLYSNGYNHLDWYLQKPGQSPQLLIYLGSNRASGVPDRFSGSGSGTDFTLKISRVEAEDVGVYYCMQALQTPPTFGQGTKLEIKRTVAAPSVFIFPPSDEQLKSGTASVVCLLNNFYPREAKVQWKVDNALQSGNSQESVTEQDSKDSTYSLSSTLTLSKADYEKHKVYACEVTHQGLSSPVTKSFNRGEC	0.166	1.43	624	84.6	3750	59.4	0.98	54	3.18e+07
CD137 #8 (A49.V43) + FAP #2 (A11 VK3/VH3) (bispecific antibody, human IgG1, kappa, L234A L235A) heavy: not shown light: EIVMTQSPLSLPVTPGEPASISCRSSQSLLYSNGYNHLDWYLQKPGQSPQLLIYLGSNRASGVPDRFSGSGSGTDFTLKISRVEAEDVGVYYCMQALQTPPTFGQGTKLEIKRTVAAPSVFIFPPSDEQLKSGTASVVCLLNNFYPREAKVQWKVDNALQSGNSQESVTEQDSKDSTYSLSSTLTLSKADYEKHKVYACEVTHQGLSSPVTKSFNRGEC	0.327	2.59	958	210	2930	81.2	5.04	467	2.5e+07
CD137 #8 (A49.V43) + FAP #3 (A11 VK7/VH1) (bispecific antibody, human IgG1, kappa, L234A L235A) heavy: not shown light: EIVMTQSPLSLPVTPGEPASISCRSSQSLLYSNGYNHLDWYLQKPGQSPQLLIYLGSNRASGVPDRFSGSGSGTDFTLKISRVEAEDVGVYYCMQALQTPPTFGQGTKLEIKRTVAAPSVFIFPPSDEQLKSGTASVVCLLNNFYPREAKVQWKVDNALQSGNSQESVTEQDSKDSTYSLSSTLTLSKADYEKHKVYACEVTHQGLSSPVTKSFNRGEC	0.17	1.01	362	58.3	2130	57.6	0.96	60.8	3.15e+07
